# Data reported in article PMC9245612 (Proceedings of the National Academy of Sciences of the …, 2022).
# B1: human NADK2 mature protein (amino acids 47 to 442) (enzyme, UniProt Q4G0N4 47-442, looked up)
# chain: LGQGQPRELAGCGSRADGGFRPSRVVVVAKTTRYEFEQQRYRYAELSEEDLKQLLALKGSSYSGLLERHHIHTKNVEHIIDSLRNEGIEVRLVKRREYDEETVRWADAVIAAGGDGTMLLAASKVLDRLKPVIGVNTDPERSEGHLCLPVRYTHSFPEALQKFYRGEFRWLWRQRIRLYLEGTGINPVPVDLHEQQLSLNQHNRALNIERAHDERSEASGPQLLPVRALNEVFIGESLSSRASYYEISVDDGPWEKQKSSGLNLCTGTGSKAWSFNINRVATQAVEDVLNIAKRQGNLSLPLNRELVEKVTNEYNESLLYSPEEPKILFSIREPIANRVFSSSRQRCFSSKVCVRSRCWDACMVVDGGTSFEFNDGAIASMMINKEDELRTVLLEQ
# B2: human cytosolic NADK, full-length (enzyme, UniProt O95544 1-446, looked up)
# chain: MEMEQEKMTMNKELSPDAAAYCCSACHGDETWSYNHPIRGRAKSRSLSASPALGSTKEFRRTRSLHGPCPVTTFGPKACVLQNPQTIMHIQDPASQRLTWNKSPKSVLVIKKMRDASLLQPFKELCTHLMEENMIVYVEKKVLEDPAIASDESFGAVKKKFCTFREDYDDISNQIDFIICLGGDGTLLYASSLFQGSVPPVMAFHLGSLGFLTPFSFENFQSQVTQVIEGNAAVVLRSRLKVRVVKELRGKKTAVHNGLGENGSQAAGLDMDVGKQAMQYQVLNEVVIDRGPSSYLSNVDVYLDGHLITTVQGDGVIVSTPTGSTAYAAAAGASMIHPNVPAIMITPICPHSLSFRPIVVPAGVELKIMLSPEARNTAWVSFDGRKRQEIRHGDSISITTSCYPLPSICVRDPVSDWFESLAQCLHWNVRKKQAHFEEEEEEEEEG
# What was measured:
# [1] = substrate: Nc1ncnc2c1ncn2[C@@H]1O[C@H](COP(=O)(O)OP(=O)(O)OP(=O)(O)O)[C@@H](O)[C@H]1O; assay: purified protein; conditions: co-substrate NAD+, 37 °C
# [2] = target: the molecule itself; assay: SEC
Protein,Km [1] [µM],stoichiometry N [2]
B1,2200,2
B2,–,4
